Assay results taken from PMC10397321, “Energetic robustness to large scale structural fluctuations in a photosynthetic supercomplex” (Nature Communications, 2023).

B1: iron-stressed induced protein A (IsiA) (natural protein)
chain: not shown
notes: IsiA, iron-stressed induced protein A, Synechocystis sp; PCC 6803; six trans-membrane helices; model rebuilt from subunit X of PDB 6NWA; Each IsiA protomer coordinates 17 chlorophylls and 4 carotenoids; 18 copies form the ring around the PSI trimer; also called IsiA protomer; IsiA monomer; source: endogenous, purified as PSI-IsiA supercomplex from Synechocystis sp; PCC 6803 grown with low iron …

How the values were obtained:
[1] = target: the molecule itself; test: cryo-EM structure; native PSI3-IsiA18 supercomplex co-purified from Synechocystis sp. PCC 6803 membranes in DDM; 30 mM Tricine-NaOH pH 8, 75 mM NaCl, 0.02% DDM; 1.5 mg chlorophyll/ml; vitrified on holey carbon grids; C3 symmetry expansion and multibody refinement
[2] = target: B1; test: as above; conditions: both partners purified

Row | Binder | stoichiometry N [1] | binding result [2]
1 | B1 | 18 | –
2 | PsaF subunit of photosystem I (natural protein, Synechocystis sp. PCC 6803, UniProt P29256 24-165, looked up, PsaF, PSI subunit, Synechocystis sp; PCC 6803; Stood in the assay as a subunit of PSI; also called PsaF/J; PsaJ/F; source: endogenous, purified as part of the PSI-IsiA supercomplex from Synechocystis sp; PCC 6803 (DDM-solubilised membranes, DEAE column, sucrose gradients)) DDFANLTPCSENPAYLAKSKNFLNTTNDPNSGKIRAERYASALCGPEGYPHLIVDGRFTHAGDFLIPSILFLYIAGWIGWVGRSYLIEIRESKNPEMQEVVINVPLAIKKMLGGFLWPLAAVGEYTSGKLVMKDSEIPTSPR | – | binds
3 | MDGLKSFLSTAPVMIMALLTFTAGILIEFNRFYPDLLFHP (natural protein, Synechocystis sp. PCC 6803, UniProt Q55329 1-40, looked up, PsaJ, PSI subunit, Synechocystis sp; PCC 6803; Stood in the assay as a subunit of PSI; also called PsaF/J; PsaJ/F; source: endogenous, purified as part of the PSI-IsiA supercomplex from Synechocystis sp; PCC 6803 (DDM-solubilised membranes, DEAE column, sucrose gradients)) [PsaJ subunit of photosystem I] | – | binds
